In assay [1] the target is Xmad2 (Xenopus laevis (endogenous in egg extracts)). The assay can be described thus: co-IP.
For assay [2], the target named is Xmad1 (Xenopus laevis (endogenous in egg extracts)). The assay can be described thus: co-IP.

From PMC2132829 come the findings set out here.

In the case of Xmad1 (natural protein), the percent of Xmad1 removed by immunodepletion of Xmad2 in assay [1] was > 95%.

In the case of Xmad2 (natural protein), the percent of Xmad2 bound with Xmad1 in assay [2] came out at 40%.
